The domain aggregation screens of Martell et al. (2025)

Test: soluble fraction after stress (log2 fold change); higher = more stays soluble; pooled small domains, quantitative proteomics
Details: stress: 75 degC
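Note: 20 min heating vs room temperature control held 20 min.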

Sequence | soluble fraction (log2)
HMNSISDSELKALIKNNYLKFLKRIASDEEIEYHFNQIKNKTILLDELDSIFQNSQEYKDLVEHNNKIQN | -0.268
HMNSKQELAYQTIRARIVDGSYGPGYRIVIDEVARELGVSPIPVREAVRRLEAEGLITYTRHAGARVVA | -0.219
HMNSLQLGSRGPTVSALQAKLNTMLVPSPRLVADGSFGPKTAQAVKAFQQMKRLVADGVVGPKTAAALGLS | -0.156
HMNSLQNNLKQARTRVGLTQGVLASQAGISRQAYSTLESGSANPSTEVALRLAQALQERVELLFYLPER | -0.948
HMNSNKFANAAAVAVAEKPADSYNPLFIYGPSGVGKTHLLYAIANEIHKHHPDYNIVYIKGDQFTNELIN | 0.088
HMNSNLSLTSYEEKIFFLLEKEKNLDELILESSFKAGEILSILMDLEIKHAIVSIPGGKYRRK | -3.85
HMNSNQESFENWLSANSWYNKDRAMRVFADSLGQELRNSGVSFEKALTQISAEVRKEFSHKFQ | -0.491
HMNSNSLSFSKFMQEVEAGRVIEVQIKGNDIQGELSDGSKFKTYSPNYPNLVDKLSENKVSIVATPL | -0.0878
HMNSNTIIFSQFLSEVDNGRVTQVQIQGNNIKGTLSNGKDFITYAPNDPNLIEKLTSKGVSISASPID | 0.0526
HMNSNTIIINDIMTKIGKEVKNFTEIYSIILKALAEHGEEYVRTNTEYALKNFTGNFDIFLEQLLLK | -0.207
HMNSRAERKEAAKEAIRNLLREGMTFEELTGPWLEKRFAEEPFNRGARSWQMLISEIKEEPEFQHL | -0.014
HMNSRQPEEEALFELLAKNPYSDEQLEEIRIAIGSGISYKDVLVIADIKNTAKQMKKLRLKFTKDTG | -0.561
HMNSTEQQTERFLATLTSLGGNAGNQRLQEALGWQGSTYQRIKQHLLDEGRIRTGRGRGGSVALSEATAT | 0.0863
HMNSTGVYQRPDGFWEYRFTLSINGKKLPRRKSTDLMGNKLKTKREAIKAREEAIIALRTEKTI | -1.42
HMNSTVKVPNVVGMSVPQAKALLEQNHLLVQGIREVSTDKAPAGIVINQLPYSDAEVKEERHIYLTVSKGK | 0.968
HMNSVKSPMPGTILGLKVSVGDTVKVGDELLVLESMKMENMINSPIDGTVSKILISEGDSVQHGQELII | 0.238
HMNSVSARRSAAITAISTGRIHSQEDLVQALKKAGYPVTQATASRDIEEIGAVRIRNQKGEMVYAIS | 0.208
HMNTEEITYSRFQQMLEAGEISQVSIESNRILILPSEETGIEKVLYTGIINDPGLVERLNSAGVEFRAPIE | -0.31
HMNTEFDVPDVVGKTLDEAEFVLKGSNLKRGLIMPVDDPSKAPGTIVRQNPEAGAGNKIRVGDVVDLWVVG | 0.271

Sequence | soluble fraction (log2)
HMNTELSPKVWDVVQEFILYRKEIKAPMTEHAVKLLIGQLQKLSSDPDEQIEILRQSIVNGWKGIFSLK | -1.2
HMNTGTTISYSDFRDRVASGTVKEVQISDDRITGVLKNDETFNTVPVGNDSGLTKLLDDNGVTYSGTP | 0.299
HMNTIFSVNGPVVKVKDTKDFSMMEMVYVGEKKLIGEVIGITESFTTIQVYEVTTGLKVGEPVYTTGAPM | -0.361
HMNTIIHPIRLAYVDSGSIKSMAEQAEIDVKILTSEANSQIFWAIGDEKQIDRLYNLISQVDIIQNK | -1.86
HMNTKHVFIIEQDDEKKRLDIFLVEKLQDSRSFLKKGIVEGWVKVNESVVKPNYKLKQKDQITVIIPP | -1.47
HMNTNDFTIGTRVRTTKKGNGSSDGTSNTARSGIEGTITRIIPEAKYPYLVSTTVPMGWYKKDALEK | 0.00349
HMNTPLYLKIREQIFDALRSGRWAANDPLPSETKLASEFEVSQGTIRKAIDDLVAQNILYRHQGRGTFIRR | -1.21
HMNTSSVTVHYQDEAGKSLADTVTLTGKVGETYSSEQKKITGYNFKEVRGNPKGQFTTEAQTVTYVYTQAA | 0.211
HMNTWVEIFRAEDQGQIRDASLVLLAVKVAHRVDMNSSSAPWSLMVPAQDQQRAHHELTTYWQENAH | -2.03
HMNVAELIEGHEAEIAEVLKEFSLLYLMRLADELGEMTKSSSGNGPFQVLKGLVYEEIARRG | -1.65
HMNVAVPTPADKRKVRVMKADINAKLRVNDANGAYAVYEELKEWVTLKGFTEWNDDLSKLSETMGSMKRKV | -0.601
HMNVDALVGQRGRVTQTFDPGLRLGRVAVGGDDWRAETTTDQPLREGDLVEVVSVESNTLIVRPIA | 0.0567
HMNVDSLIGQTARVIVDINNNDSIGYALVGGQEWTARAENDNDIIPKDTLVEIVGVSGVKLIVRRKE | 0.0563
HMNVDSLVGSEARVTAEIDNRKETGTAMVNGQEWTARAESDEEIYPVGTIVEIRKIQGVKLIVSTH | -0.394
HMNVEATAETLLALLKKNGGSLPFGDKSDPEAIQSQLKMSKKTFKKAAGTLFKKKLVRIEDHGIFL | -2.02
HMNVEGEVVVPNVIGRTMKDVAVILSDLGLRMEAEGTGVAKSSQPQHGTSVKRGTVVQVRFEPLSVN | 0.648
HMNVEKLREMYPEGTKIILQEMQGESRMAKGLKGTVTHVDDAGQIHMKWENGSSLVLNVEVDTFKKIE | 0.0771
HMNVEVDSIGDDDFLVKVSAGTSTEHRVTLTDAYWEQIWSSSLPKKEIISLSFAFLLEREPNSSIMRT | 0.161
HMNVNALIGQEGIVIKEINSGSNKIGQVKISGDTWSAVTTNDFTNAIPVGSNVKILKIDGVNLIVEPVY | -0.255
